We go through 19 substances from patent US5223421A, “Identification of methionine Nα-acetyltransferase” (The General Hospital Corporation, priority 1990, dated 1993).

Test [1] addresses T1, AAA1 N^α -acetyltransferase (N^α -AT) (Saccharomyces cerevisiae, UniProt P07347+P12945).
T1 sequence (P12945 2-854 limits assumed): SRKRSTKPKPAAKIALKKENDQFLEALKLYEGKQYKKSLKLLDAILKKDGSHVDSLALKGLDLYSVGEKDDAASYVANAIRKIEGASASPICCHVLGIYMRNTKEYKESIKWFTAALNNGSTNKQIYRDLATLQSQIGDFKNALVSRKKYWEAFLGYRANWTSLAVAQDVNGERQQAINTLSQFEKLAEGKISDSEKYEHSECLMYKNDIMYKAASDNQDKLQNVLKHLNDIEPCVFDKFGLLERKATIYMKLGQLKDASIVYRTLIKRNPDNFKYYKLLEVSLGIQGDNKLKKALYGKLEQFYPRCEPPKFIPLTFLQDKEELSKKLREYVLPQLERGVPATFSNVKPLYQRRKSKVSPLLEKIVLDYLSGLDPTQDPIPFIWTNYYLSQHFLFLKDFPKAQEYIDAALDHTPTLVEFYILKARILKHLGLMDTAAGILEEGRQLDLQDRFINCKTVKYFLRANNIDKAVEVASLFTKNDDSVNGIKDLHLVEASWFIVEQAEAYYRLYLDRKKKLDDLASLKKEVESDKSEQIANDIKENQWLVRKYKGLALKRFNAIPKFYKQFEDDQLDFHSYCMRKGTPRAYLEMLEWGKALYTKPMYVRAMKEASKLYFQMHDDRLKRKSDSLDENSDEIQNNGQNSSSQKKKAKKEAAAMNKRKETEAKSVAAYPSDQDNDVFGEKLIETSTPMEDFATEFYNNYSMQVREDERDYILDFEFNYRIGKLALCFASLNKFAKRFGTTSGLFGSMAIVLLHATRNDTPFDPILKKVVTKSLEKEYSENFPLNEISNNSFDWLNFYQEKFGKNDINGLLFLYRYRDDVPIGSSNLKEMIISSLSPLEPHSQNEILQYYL
T1 sequence (P07347 1-238): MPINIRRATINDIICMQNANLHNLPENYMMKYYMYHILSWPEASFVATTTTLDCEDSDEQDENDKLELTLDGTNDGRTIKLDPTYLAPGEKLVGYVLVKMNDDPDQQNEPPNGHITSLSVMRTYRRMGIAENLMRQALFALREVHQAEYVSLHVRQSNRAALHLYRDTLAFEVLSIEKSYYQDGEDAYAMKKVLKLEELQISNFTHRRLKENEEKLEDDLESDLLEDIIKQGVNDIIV
Description: Relative activity of N^α -AT for N^α -acetylation of synthetic peptides. The class given is biochemical. As to conditions: Table 7, influence of the penultimate amino terminal residue. The method, then: (§1) N^α -acetylt[…] was determined as previously described [Lee et al., J. Biol. Chem. 263:14948-14955 (1988)]. Aliquots of the lysate or chromatographic fractions were added to 1.5 ml Eppendorf tubes containing a reaction mixture of 50 mM HEPES, pH 7.4, 150 mM KCl, 1 mM DTT, 25 μM [^3 H] acetyl coenzyme A (0.5 μCi) and 50 μM synthetic peptide with an adjusted final volume of 100 μl. The assay mixture was incubated at 30° C. for 30 min. The reaction was stopped by adding 17 μl of 0.5M acetic acid and chilled in an ice bath. The reaction samples were filtered through SP membrane discs (Cuno) (previously pre-swollen in 0.5M acetic acid), and then washed three times with 1 ml of 0.5M acetic acid on a Millipore 1225 sampling manifold. The partially dried membranes were placed in scintillation cocktail and counted with a Beckman LS 3801 scintillation counter. One unit of activity was defined as the amount of enzyme able to transfer 1 pmol of [^3 H] acetyl group from [^3 H] acetyl coenzyme A to synthetic peptide per min under standard enzyme assay conditions defined above.
(§2) In order to compare the relative specificity and activity of the methionine N^α -acetylt[…] (M-N^α -AT) of the present invention with the specificity and activity of the AAA1 N^α -acetyltransferase (N^α -AT) of Lee, F.-J. S., et al., J. Bacteriol. 171, (1989), U.S. Patent Application of John A. Smith, and Fang-Jen S. Lee, filed Oct. 25, 1989, entitled "ISOLATION OF STRAINS OF SAC[…] ALTERED N^α -ACETYLT[…]" (which references have been incorporated herein by reference) synthetic peptides were prepared. These peptides were assessed for their ability to serve as substrates for the two enzymes. In Table 6, the effect of the amino terminal amino acid on activity is investigated; in Table 7, the effect of the penultimate amino terminal amino acid on activity is investigated.

The subject of test [2] is methionine N^α -acetyltransferase (M-N^α -AT). Description: Relative activity of M-N^α -AT for N^α -acetylation of synthetic peptides. The class given is biochemical, Saccharomyces cerevisiae. Details: tested at 50 µM. As to conditions: Table 7, influence of the penultimate amino terminal residue. The method, then: as §1, §2

Consider “STPETQKGVIFYESHGKLEYKDIP (STPETQKGVIFYESHGKLEYKDIP)”, for which the “Activity (%) (mean activity ± S.D.) N^a -AT” value in test [1] came to 144 ± 8%. Moreover, the “Activity (%) (mean activity ± S.D.) M-N^a -AT” value in test [2] is given as 0%.

“SGPETQKGVIFYESHGKLEYKDIP (SGPETQKGVIFYESHGKLEYKDIP)”: the “Activity (%) (mean activity ± S.D.) N^a -AT” value in test [1] stood at 84 ± 5%. In test [2], the “Activity (%) (mean activity ± S.D.) M-N^a -AT” value is 0%.

With “SCPETQKGVIFYESHGKLEYKDIP (SCPETQKGVIFYESHGKLEYKDIP)”, in test [1], the “Activity (%) (mean activity ± S.D.) N^a -AT” value was 136 ± 7%. For the same substance, in test [2], the “Activity (%) (mean activity ± S.D.) M-N^a -AT” value is on record as 0%.

“SRPETQKGVIFYESHGKLEYKDIP (SRPETQKGVIFYESHGKLEYKDIP)”: the “Activity (%) (mean activity ± S.D.) N^a -AT” value in test [1] is recorded as 102 ± 5%. In test [2], the “Activity (%) (mean activity ± S.D.) M-N^a -AT” value came to 0%.

“SHPETQKGVIFYESHGKLEYKDIP (SHPETQKGVIFYESHGKLEYKDIP)”: in test [1], the “Activity (%) (mean activity ± S.D.) N^a -AT” value came to 125 ± 6%. Also, the “Activity (%) (mean activity ± S.D.) M-N^a -AT” value in test [2] was found to be 0%.

As for “SDPETQKGVIFYESHGKLEYKDIP (SDPETQKGVIFYESHGKLEYKDIP)”, the “Activity (%) (mean activity ± S.D.) N^a -AT” value in test [1] was found to be 171 ± 9%. Also, in test [2], the “Activity (%) (mean activity ± S.D.) M-N^a -AT” value amounted to 0%.

As to “SNPETQKGVIFYESHGKLEYKDIP (SNPETQKGVIFYESHGKLEYKDIP)”, in test [1], the “Activity (%) (mean activity ± S.D.) N^a -AT” value is recorded as 116 ± 5%. The “Activity (%) (mean activity ± S.D.) M-N^a -AT” value in test [2] came to 0%.

Regarding “SMPETQKGVIFYESHGKLEYKDIP (SMPETQKGVIFYESHGKLEYKDIP)”, in test [1], the “Activity (%) (mean activity ± S.D.) N^a -AT” value stood at 140 ± 7%. In test [2], the “Activity (%) (mean activity ± S.D.) M-N^a -AT” value came to 0%.

Regarding “SLPETQKGVIFYESHGKLEYKDIP (SLPETQKGVIFYESHGKLEYKDIP)”, in test [1], the “Activity (%) (mean activity ± S.D.) N^a -AT” value was 126 ± 5%. Besides, in test [2], the “Activity (%) (mean activity ± S.D.) M-N^a -AT” value is listed as 0%.

Turning to “SAPETQKGVIFYESHGKLEYKDIP (SAPETQKGVIFYESHGKLEYKDIP)”, the “Activity (%) (mean activity ± S.D.) N^a -AT” value in test [1] amounted to 168 ± 8%. In test [2], the “Activity (%) (mean activity ± S.D.) M-N^a -AT” value amounted to 0%.

For “SKPETQKGVIFYESHGKLEYKDIP (SKPETQKGVIFYESHGKLEYKDIP)”, the “Activity (%) (mean activity ± S.D.) N^a -AT” value in test [1] stood at 151 ± 6%. Further, the “Activity (%) (mean activity ± S.D.) M-N^a -AT” value in test [2] is 0%.

In the case of “SFPETQKGVIFYESHGKLEYKDIP (SFPETQKGVIFYESHGKLEYKDIP)”, the “Activity (%) (mean activity ± S.D.) N^a -AT” value in test [1] was found to be 118 ± 6%. Moreover, in test [2], the “Activity (%) (mean activity ± S.D.) M-N^a -AT” value came out at 0%.

As to “SYPETQKGVIFYESHGKLEYKDIP (SYPETQKGVIFYESHGKLEYKDIP)”, in test [1], the “Activity (%) (mean activity ± S.D.) N^a -AT” value turned out to be 169 ± 8%. The “Activity (%) (mean activity ± S.D.) M-N^a -AT” value in test [2] amounted to 0%.

“SPPETQKGVIFYESHGKLEYKDIP (SPPETQKGVIFYESHGKLEYKDIP)”: in test [1], the “Activity (%) (mean activity ± S.D.) N^a -AT” value is on record as 0%. Besides, in test [2], the “Activity (%) (mean activity ± S.D.) M-N^a -AT” value is on record as 0%.

On to “SVPETQKGVIFYESHGKLEYKDIP (SVPETQKGVIFYESHGKLEYKDIP)”, for which the “Activity (%) (mean activity ± S.D.) N^a -AT” value in test [1] worked out at 123 ± 7%. For the same substance, the “Activity (%) (mean activity ± S.D.) M-N^a -AT” value in test [2] is 0%.

In the case of “SWPETQKGVIFYESHGKLEYKDIP (SWPETQKGVIFYESHGKLEYKDIP)”, in test [1], the “Activity (%) (mean activity ± S.D.) N^a -AT” value turned out to be 91 ± 5%. The “Activity (%) (mean activity ± S.D.) M-N^a -AT” value in test [2] was determined as 0%.

For the substance “SQPETQKGVIFYESHGKLEYKDIP (SQPETQKGVIFYESHGKLEYKDIP)”, in test [1], the “Activity (%) (mean activity ± S.D.) N^a -AT” value was 134 ± 7%. In addition, in test [2], the “Activity (%) (mean activity ± S.D.) M-N^a -AT” value was found to be 0%.

In the case of “SEPETQKGVIFYESHGKLEYKDIP (SEPETQKGVIFYESHGKLEYKDIP)”, in test [1], the “Activity (%) (mean activity ± S.D.) N^a -AT” value came to 121 ± 6%. In test [2], the “Activity (%) (mean activity ± S.D.) M-N^a -AT” value is given as 0%.

For the substance “SSPETQKGVIFYESHGKLEYKDIP (SSPETQKGVIFYESHGKLEYKDIP)”, the “Activity (%) (mean activity ± S.D.) N^a -AT” value in test [1] was found to be 140 ± 6%. In addition, the “Activity (%) (mean activity ± S.D.) M-N^a -AT” value in test [2] is 0%.
